Results reported in US20180355396, “Biosensors for Organic and Inorganic Arsenic” (THE FLORIDA INTERNATIONAL UNIVERSITY BOARD OF TRUSTEES, published 2018).

Biological target: T1, AfArsR C102S (Acidithiobacillus ferrooxidans, UniProt B7J952 B7J952:1-118, C102S)
T1 sequence: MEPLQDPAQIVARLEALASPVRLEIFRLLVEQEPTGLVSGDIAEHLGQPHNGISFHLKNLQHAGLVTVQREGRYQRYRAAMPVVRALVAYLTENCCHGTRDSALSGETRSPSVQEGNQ
Assay: FP; anisotropy; complex little affected by As(III) up to 40 uM, dissociated by MAs(III), Rox(III), PhAs(III); same buffer
Conditions: tags: C-terminal His tag (pBADarsR, E. coli Top10); chain copies: 2 (homodimer, inferred); label: 5'-6-FAM

B1: ars operator/promoter 30-mer (arsO) (dsDNA)
DNA 1: ATCCACGAATATTTCTTGCAGTATTGACAA
DNA 2: TTGTCAATACTGCAAGAAATATTCGTGGAT
B1: binds.
